Reference: IntAct's records for PubMed 19860830

B1: Casein kinase I isoform alpha (Oryctolagus cuniculus (Rabbit)), P67828 (parent)
chain: MASSSGSKAEFIVGGKYKLVRKIGSGSFGDIYLAINITNGEEVAVKLESQKARHPQLLYESKLYKILQGGVGIPHIRWYGQEKDYNVLVMDLLGPSLEDLFNFCSRRFTMKTVLMLADQMISRIEYVHTKNFIHRDIKPDNFLMGIGRHCNKLFLIDFGLAKKYRDNRTRQHIPYREDKNLTGTARYASINAHLGIEQSRRDDMESLGYVLMYFNRTSLPWQGLKAATKKQKYEKISEKKMSTPVEVLCKGFPAEFAMYLNYCRGLRFEEAPDYMYLRQLFRILFRTLNHQYDYTFDWTMLKQKAAQQAASSSGQGQQAQTPTGF
partner: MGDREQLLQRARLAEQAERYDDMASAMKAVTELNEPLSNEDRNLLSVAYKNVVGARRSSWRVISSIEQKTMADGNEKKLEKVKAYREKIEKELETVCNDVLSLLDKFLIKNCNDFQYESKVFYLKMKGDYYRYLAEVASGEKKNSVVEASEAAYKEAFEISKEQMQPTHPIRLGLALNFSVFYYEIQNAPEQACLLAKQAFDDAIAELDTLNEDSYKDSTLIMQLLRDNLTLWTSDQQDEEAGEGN

Variants of: B1
Settings: with 1433f_human YWHAH

Row | Variant | effect of a mutation on the interaction
1 | S242A | disrupting interaction
2 | S218A | disrupting interaction

Variants of: B1
Settings: with 1433f_human YWHAH
Remark: another data set of the same source

Row | Variant | effect of a mutation on the interaction
3 | S218A | decreasing interaction
